Reference: US20250027068
Positions count from the first letter of the chain named.

B1: PRT-622 (protein)
chain: MQITSVWTKGVTPLTPEQFRYNNEDVIHAPYLAHQGWYDITKAFDGKDNLLCGAATAGNMLHWWFDQNKTEIEAYLSKHPEKQKIIFNNQELFDLKAAIDTKDSQTNSQLFNYFRDKAFPNLSARQLGVMPDLVLDMFINGYYLNVFKTQSTDVNRPYQDKDKRGGIFDAVFTRGDQTTLLTARHDLKNKTLKEISDIIKQELQSGRALALSHTYANVSISHVINLWGADFNSEGNLIAIYVTDSDANASIGMKKYFVGINAHGHVAISAKKIEGENIGAQVLGLFTLSSGKDIWQKLSLEHHHHHH
B2: PRT-572 (protein)
chain: MANQEIRYSEATPSHITSVWTKGVTPPTQFIQNEDVLHAPYIANQGWYDITKTFNGKDDLLCGAATAGNMLHWWFDQNKEQIENYLKKHPEKQKINFNGEQMFDVKEAIDTKDSQTDSALFSYFKDKAFPYLSTKHLGVFPDHVIDMFINGYRLSLTNHGPTPVKEQTKDPRGGIFDAVFTRGDQSKLLTSRHDFKEKTLNEISQLIKQELTEGKALGLSHTYANVRINHVINLWGADFNAEGNLEAIYVTDSDSNASIGMKKYYVGVNSAGKVAISAKEIEGDNIGAQVLGLFTLSTGQDIWQQTNLEHHHHHH
B3: PRT-655 (protein)
chain: MQITSVWTKGVTPLTPEQFRYNNEDVIHAPYLAHQGWYDITKAFDGKDNLLCGAATAGNMLHWWFDQNKTEIEAYLSKHPEKQKIIFNNQELFDLKAAIDTKDSQTNSQLFNYFRDKAFPNLSARQLGVMPDLVLDMFINGYYLNVFKTQSTDVNRPYQDKDKRGGIFDAVFTRGDQTTLLTARHDLKNKGLNDISTIIKQELTEGRALALSHKTGNGGSSHVINLWGADFNAEGNLEAIYVTDSDANASIGMKKYFVGINAHGHVAISAKKIEGEDVGAQVLGLFTLSSGKDIWQKLSLEHHHHHH
B4: PRT-627 (protein)
chain: MQITSVWTKGVTPLTPEQFRYNNEDVIHAPYLAHQGWYDITKAFDGKDNLLCGAATAGNMLHWWFDQNKEEIEAYLKKYGETQKIIFNNQELFDLKAAIDTKDSQTNSQLFNYFRDKAFPNLSARQLGVMPDLVLDMFINGYYLNVFKTQSTDVNRPYQDKDKRGGIFDAVFTRGDQTTLLTARHDLKNKGLNDISTIIKQELTEGRALALSHTYANVSISHVINLWGADFNAEGNLEAIYVTDSDANASIGMKKYFVGINAHGHVAISAKKIEGENIGAQVLGLFTLSSGKDIWQKLSLEHHHHHH
B5: PRT-612 (protein)
chain: B4 chain with E70T, K77S, Y79H, G80P, T82K, K96R, D100N, T101S
B6: PRT-606 (protein)
chain: B4 chain with E70T, K77S, G80P, E81D, T82K, D293E
B7: PRT-639 (protein)
chain: B4 chain with A43T, D45N, N49D, E70T, K77S, Y79H, G80P, T82K, N248D
B8: PRT-65 (protein)
chain: MANQEIRYSEVTPYHVTSVWTKGVTPPANFTQGEDVFHAPYVANQGWYDITKTFNGKDDLLCGAATAGNMLHWWFDQNKDQIKRYLEEHPEKQKINFNGEQMFDVKEAIDTKNHQLDSKLFEYFKEKAFPYLSTKHLGVFPDLVIDMFINGYRLSLTNHGPTPVKEGSKDPRGGIFDAVFTRGDQSKLLTSRHDFKEKNLKEISDLIKKELTEGKALGLSHTYANVRINHVINLWGADFDSNGNLKAIYVTDSDSNASIGMKKYFVGVNSAGKVAISAKEIKEDNIGAQVLGLFTLSTGQDSWNQTN
B9: PRT-550 (protein)
chain: MANQEIRYSEETPKTITSIWTKGVTPPTDFIKNEDVLHAPYIANQGWYDITKTFNGKDDLLCGAATAGNMLHWWFDQNKEEIENYLKKHPEKQKINFNGEQMFDVKEAIDTKDSQTDSKLFEYFKDKAFPYLSTKHLGVFPDHVIDMFINGYRLSLTNHGPTPVKRGTKDPRGGIFDAVFTRGDQSKLLTARHDFKEKTLNEISDLIKQELTEGKALGLSHTYANVRINHVINLWGADFNSEGNLEAIYVTDSDSNASIGMKKYYVGVNAAGKVAISAKEIEGDNIGAQVLGLFTLSTGQDIWNQTNLEHHHHHH
B10: PRT-678 (protein)
chain: MQITTVWTKGVTPLTPEQFRYNNEEVIHAPYKAGQGWYDITKVFDGKDNLLCGAATAGNMLHWWFDQNKTEIEAYLSKHPEKQKIIFNNQELFDLKRAIDDKDSQTNSQLFNYFRDKAFPNLSARQLGVMPDLVLDMFINGYYLNVFKTQSTDVNRPYQDPDKRGGIFDDVFGKGDQTTLLTARHDLKNLGLEDISTIIKQELRNGRALALSHTYANVSISHVINLWGADFNAEGNLSAIYVTDSDANNSIGMKKYKVGYNAHGRVAISAKKIEGENIGAQVLGLFTLSSGKDIWQKLSLEHHHHHH

Target: pooled human IgG

Row | Protein | Enzyme Activity Endpoint Assay (purified): Fab′2 [ng/µL] | Enzyme Activity Endpoint Assay (purified): Fc [ng/µL] | Enzyme Activity Endpoint Assay (purified): IgG [ng/µL] | Enzyme Activity Endpoint Assay (purified): scIgG [ng/µL]
1 | B1 | 823 | 423 | 0 | 0
2 | B2 | 936 | 478 | 0 | 0
3 | B3 | 471 | 0 | 1380 | 15
4 | B4 | 767 | 415 | 124 | 187
5 | B5 | 986 | 533 | 0 | 0
6 | B6 | 737 | 406 | 0 | 0
7 | B7 | 788 | 450 | 0 | 0
8 | B8 | 35 | 100 | 26 | 34
9 | B9 | 891 | 389 | 0 | 0
10 | B10 | 56 | 0 | 39 | 0
